# In US20240209106A1 (BEIGENE SWITZERLAND, published 2024):
# T1: recombinant CEA protein (human, UniProt P06731 35-685, limits assumed)
# T1 construct: also called recombinant soluble CEA; in-house made recombinant CEA proteins
# T1 sequence (looked up): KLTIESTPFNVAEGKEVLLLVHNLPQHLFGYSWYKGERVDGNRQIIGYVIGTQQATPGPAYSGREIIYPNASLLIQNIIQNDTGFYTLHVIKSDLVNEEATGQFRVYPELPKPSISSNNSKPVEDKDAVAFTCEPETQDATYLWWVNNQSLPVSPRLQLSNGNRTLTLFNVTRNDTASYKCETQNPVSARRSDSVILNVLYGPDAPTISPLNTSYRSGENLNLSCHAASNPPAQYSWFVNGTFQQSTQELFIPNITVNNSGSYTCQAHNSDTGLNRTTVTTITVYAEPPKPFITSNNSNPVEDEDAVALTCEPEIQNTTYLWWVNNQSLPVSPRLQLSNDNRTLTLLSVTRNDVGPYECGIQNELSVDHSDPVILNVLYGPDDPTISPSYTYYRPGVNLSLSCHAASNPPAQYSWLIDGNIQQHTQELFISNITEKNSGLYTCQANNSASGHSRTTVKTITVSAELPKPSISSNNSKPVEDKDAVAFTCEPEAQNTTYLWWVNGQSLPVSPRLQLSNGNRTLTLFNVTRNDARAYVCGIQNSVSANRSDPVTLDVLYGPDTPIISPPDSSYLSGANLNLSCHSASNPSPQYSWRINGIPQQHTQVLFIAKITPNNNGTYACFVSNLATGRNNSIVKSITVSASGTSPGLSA
# T2: human CEA on cells (human, UniProt P06731 35-685)
# T2 construct: whole, on cells; also called CT26/CEA; MKN45
# T2 sequence (looked up): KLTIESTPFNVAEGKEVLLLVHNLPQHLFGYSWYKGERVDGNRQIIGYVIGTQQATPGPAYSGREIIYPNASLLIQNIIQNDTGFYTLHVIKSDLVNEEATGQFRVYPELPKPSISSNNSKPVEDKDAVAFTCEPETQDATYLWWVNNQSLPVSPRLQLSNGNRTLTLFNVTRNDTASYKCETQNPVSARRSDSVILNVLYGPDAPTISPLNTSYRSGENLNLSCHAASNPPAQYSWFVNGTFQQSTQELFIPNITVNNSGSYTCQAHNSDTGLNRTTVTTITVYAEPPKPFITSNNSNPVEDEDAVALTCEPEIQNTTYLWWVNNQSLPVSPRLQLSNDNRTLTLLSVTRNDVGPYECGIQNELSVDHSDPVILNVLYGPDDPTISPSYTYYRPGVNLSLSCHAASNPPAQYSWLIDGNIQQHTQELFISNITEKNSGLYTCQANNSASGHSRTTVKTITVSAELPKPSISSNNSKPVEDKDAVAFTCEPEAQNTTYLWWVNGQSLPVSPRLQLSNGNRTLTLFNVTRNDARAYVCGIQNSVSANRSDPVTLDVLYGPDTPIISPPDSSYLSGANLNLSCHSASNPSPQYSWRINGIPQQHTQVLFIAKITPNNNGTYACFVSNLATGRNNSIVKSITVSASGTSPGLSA
# T3: TNFRSF7(CD27) (UniProt P26842 21-192, limits assumed)
# T3 construct: Bought protein
# T3 sequence (looked up): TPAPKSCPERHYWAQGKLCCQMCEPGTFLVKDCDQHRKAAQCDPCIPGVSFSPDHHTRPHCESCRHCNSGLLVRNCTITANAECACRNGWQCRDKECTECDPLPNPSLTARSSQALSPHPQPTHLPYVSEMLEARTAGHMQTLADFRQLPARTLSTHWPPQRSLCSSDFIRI
# T4: TNFRSF1A(CD120a) (UniProt P19438 22-211, limits assumed)
# T4 construct: Bought protein
# T4 sequence (looked up): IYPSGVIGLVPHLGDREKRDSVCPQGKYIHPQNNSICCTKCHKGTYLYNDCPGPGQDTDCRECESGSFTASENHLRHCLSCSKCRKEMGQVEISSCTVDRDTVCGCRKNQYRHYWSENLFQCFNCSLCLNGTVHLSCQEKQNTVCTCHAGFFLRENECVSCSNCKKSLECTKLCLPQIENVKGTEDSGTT
# T5: TNFRSF1B(CD120b) (UniProt P20333 23-257)
# T5 construct: Bought protein
# T5 sequence (looked up): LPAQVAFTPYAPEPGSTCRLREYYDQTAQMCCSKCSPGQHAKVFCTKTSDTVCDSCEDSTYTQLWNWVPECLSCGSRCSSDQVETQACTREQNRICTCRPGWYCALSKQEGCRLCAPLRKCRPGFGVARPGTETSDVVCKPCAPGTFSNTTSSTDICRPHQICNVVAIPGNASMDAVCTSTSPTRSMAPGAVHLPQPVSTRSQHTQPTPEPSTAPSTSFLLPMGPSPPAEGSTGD
# Columns and labels:
# [1] = biological target: T6, human CD137 ECD (AA 24-183) (human, UniProt Q07011 24-183); experiment: method and huCD137 construct not stated
# T6 construct: also called huCD137
# [2] = biological target: T1, recombinant CEA protein; experiment: method and CEA construct not stated (TAA KD)
# [3] = biological target: T2, human CEA on cells; experiment: flow cytometry on MKN45 cells [panel A]
# [4] = biological target: T3, TNFRSF7(CD27); experiment: antigen ELISA, receptor coated at 10 ug/ml, detection with HRP anti-human IgG
# Procedure: (§1) For antigen ELISA, a Maxisorp immunoplate was coated with antigens and blocked with 3% BSA (w/v) in PBS buffer (blocking buffer). Monoclonal VH domain antibodies were blocked with blocking buffer for 30 min and added to wells of the ELISA plate for 1 hour.
# [5] = biological target: T7, human CD40 ECD (human, UniProt P25942 21-194); experiment: as above
# T7 construct: also called TNFRSF5(CD40); huCD40
# T7 sequence (P25942 21-194 limits assumed): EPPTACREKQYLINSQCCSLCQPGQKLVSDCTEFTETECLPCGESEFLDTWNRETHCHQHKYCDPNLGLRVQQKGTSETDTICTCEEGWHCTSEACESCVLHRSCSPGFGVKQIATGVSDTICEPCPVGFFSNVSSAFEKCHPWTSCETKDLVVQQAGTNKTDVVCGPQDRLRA
# Procedure: as §1
# [6] = biological target: T4, TNFRSF1A(CD120a); experiment: as above
# Procedure: as §1
# [7] = biological target: T5, TNFRSF1B(CD120b); experiment: as above
# Procedure: as §1
# [8] = biological target: T8, full-length human CD137 (huCD137) (human, UniProt Q07011 24-255); experiment: flow cytometry ligand competition on Hut78/huCD137: human CD137 ligand ECD-mIgG2a in the presence of serially diluted antibody, ligand detected with goat anti-murine IgG-APC; blocked ligand: m5
# T8 construct: On transduced Hut78 cells (Hut78/huCD137), transiently on HEK293 cells, or natively on PBMC/T cells; also called TNFRSF9; 4-1BB
# T8 sequence (Q07011 24-255 limits assumed): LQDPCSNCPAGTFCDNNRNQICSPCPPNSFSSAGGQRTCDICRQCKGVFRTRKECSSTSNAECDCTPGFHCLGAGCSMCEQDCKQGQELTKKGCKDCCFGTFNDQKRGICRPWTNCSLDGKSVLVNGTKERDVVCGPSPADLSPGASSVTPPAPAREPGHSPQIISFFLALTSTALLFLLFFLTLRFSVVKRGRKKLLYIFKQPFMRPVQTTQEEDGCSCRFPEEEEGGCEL
# [9] = biological target: T2, human CEA on cells; experiment: flow cytometry on CT26/CEA cells [panel A]
# [10] = biological target: T8, full-length human CD137 (huCD137); experiment: flow cytometry on Hut78/huCD137 cells [panel B]
# [11] = biological target: T8, full-length human CD137 (huCD137); experiment: flow cytometry ligand competition on Hut78/huCD137: BGA-4712 (VH-Fc) in the presence of serially diluted human CD137 ligand-mIgG2a, bound BGA-4712 detected with anti-hu IgG Fc; competitor: BGA-4712 [panel C]
# Source text: Cell fluorescence was quantified using a flow cytometer (Guava easyCyte™ 8HT, Merck-Millipore, USA). Ligand competition was also applied in a flow cytometry based assay.
# [12] = biological target: human CD137 ECD-mIgG2a (human); experiment: competition ELISA on coated human CD137 ECD-mIgG2a: BGA-5623 (IgG4) in the presence of serially diluted human CD137 ligand ECD-mIgG2a, bound antibody detected with HRP anti-human IgG; competitor: BGA-5623 (IgG4)
# Sequence of human CD137 ECD-mIgG2a (human) (chain, as listed by the source limits assumed): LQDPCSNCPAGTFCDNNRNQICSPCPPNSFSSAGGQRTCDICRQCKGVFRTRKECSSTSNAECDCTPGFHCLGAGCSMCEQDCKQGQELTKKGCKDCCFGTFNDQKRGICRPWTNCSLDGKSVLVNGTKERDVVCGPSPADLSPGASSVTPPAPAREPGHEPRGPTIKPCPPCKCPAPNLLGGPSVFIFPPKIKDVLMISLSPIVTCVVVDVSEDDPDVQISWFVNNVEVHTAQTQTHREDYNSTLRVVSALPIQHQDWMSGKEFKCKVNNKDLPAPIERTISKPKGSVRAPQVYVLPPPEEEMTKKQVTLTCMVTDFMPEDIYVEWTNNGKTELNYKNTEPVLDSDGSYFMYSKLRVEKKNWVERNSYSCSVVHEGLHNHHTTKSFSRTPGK
binder,measurement,setting,value
"BE-146 (CEA × CD137) (bispecific antibody, human IgG1, kappa, Module ratio 2:2) heavy: QVQLVQSGAEVKKPGASVKVSCKASGYIFTSYYLHWVRQAPGQGLEWIGYINPQTGKTSYAQKFQGRVTMTRDTSTSTVYMELSSLRSEDTAVYYCAREYGNYNYPLDYWGQGTLVTVSSASTKGPSVFPLAPSSKSTSGGTAALGCLVKDYFPEPVTVSWNSGALTSGVHTFPAVLQSSGLYSLSSVVTVPSSSLGTQTYICNVNHKPSNTKVDKKVEPKSCDKTHTCPPCPAPPAAGPSVFLFPPKPKDTLMISRTPEVTCVVVDVSHEDPEVKFNWYVDGVEVHNAKTKPREEQYNSTYRVVSVLTVLHQDWLNGKEYKCKVSNKALAAPIEKTISKAKGQPREPQVYTLPPSREEMTKNQVSLTCLVKGFYPSDIAVEWESNGQPENNYKTTPPVLDSDGSFFLYSKLTVDKSRWQQGNVFSCSVMHEALHNHYTQKSLSLSPGKGGGGSEVQLLESGGGLVQPGGSLRLSCAASGFTVSAEDVGWVRQAPGKGLEWVSAILDKGGSTYYAESVKGRFTISRDNAKNTLYLQMSSLRAEDTAVYYCARIVYHAGGGVTFDTRGQGTQVTVSS light: DIQMTQSPSSLSASVGDRVTITCRASENQYGYLAWYQQKPGKVPKLLIYNYKNLVEGVPSRFSGSGSGTDFTLTISSLQPEDVATYYCQHHLGTPYTFGQGTKVEIKRTVAAPSVFIFPPSDEQLKSGTASVVCLLNNFYPREAKVQWKVDNALQSGNSQESVTEQDSKDSTYSLSSTLTLSKADYEKHKVYACEVTHQGLSSPVTKSFNRGEC",Kd,[1],167 nM
same,Kd,[2],6.5 nM
same,EC50 (read off the curve),[3],~0.5 µg/mL
"Urelumab analog (antibody, human IgG4 S228P, kappa, V domains shown) VH: QVQLQQWGAGLLKPSETLSLTCAVYGGSFSGYYWSWIRQSPEKGLEWIGEINHGGYVTYNPSLESRVTISVDTSKNQFSLKLSSVTAADTAVYYCARDYGPGNYDWYFDLWGRGTLVTVSS VL: EIVLTQSPATLSLSPGERATLSCRASQSVSSYLAWYQQKPGQAPRLLIYDASNRATGIPARFSGSGSGTDFTLTISSLEPEDFAVYYCQQRSNWPPALTFGGGTKVEIKR",binding result,[4],no binding
same,binding result,[5],no binding
same,binding result,[6],no binding
same,binding result,[7],no binding
same,IC50 (read off the curve),[8],~0.03 µg/mL
"anti-CEA Ab (IgG1) (antibody, V domains shown, also called anti-CEA antibody) VH: QVQLVQSGAEVKKPGASVKVSCKASGYIFTSYYLHWVRQAPGQGLEWIGYINPQTGKTSYAQKFQGRVTMTRDTSTSTVYMELSSLRSEDTAVYYCAREYGNYNYPLDYWGQGTLVTVSS VL: DIQMTQSPSSLSASVGDRVTITCRASENQYGYLAWYQQKPGKVPKLLIYNYKNLVEGVPSRFSGSGSGTDFTLTISSLQPEDVATYYCQHHLGTPYTFGQGTKVEIKR",EC50 (read off the curve),[3],~0.5 µg/mL
same,EC50 (read off the curve),[9],~1 µg/mL
same,binding result,[10],no binding (tested: just above 10^2 ug/ml)
"human CD137 ligand-mIgG2a (Fc fusion, also called human CD137 ligand ECD-mIgG2a; huCD137 ligand) EPRGPTIKPCPPCKCPAPNLLGGPSVFIFPPKIKDVLMISLSPIVTCVVVDVSEDDPDVQISWFVNNVEVHTAQTQTHREDYNSTLRVVSALPIQHQDWMSGKEFKCKVNNKDLPAPIERTISKPKGSVRAPQVYVLPPPEEEMTKKQVTLTCMVTDFMPEDIYVEWTNNGKTELNYKNTEPVLDSDGSYFMYSKLRVEKKNWVERNSYSCSVVHEGLHNHHTTKSFSRTPGKGGGGSREGPELSPDDPAGLLDLRQGMFAQLVAQNVLLIDGPLSWYSDPGLAGVSLTGGLSYKEDTKELVVAKAGVYYVFFQLELRRVVAGEGSGSVSLALHLQPLRSAAGAAALALTVDLPPASSEARNSAFGFQGRLLHLSAGQRLGVHLHTEARARHAWQLTQGATVLGLFRVTPEIPAGLPSPRSE",IC50,[11],0.42 µg/mL
same,IC50 (read off the curve),[12],~1 µg/mL
